Test results from patent publication US11795460B2, “Compositions and methods for TTR gene editing and treating ATTR amyloidosis” (Intellia Therapeutics, Inc., priority 2017, dated 2023).
Strand notation (5' to 3'): a small letter for the sugar, then the base; units joined by * are phosphorothioate-linked, units joined directly phosphodiester-linked; [ ] holds rarer units or linkages, { } end groups; capitals alone tell only the bases. m = 2'-O-methyl; r = 2'-OH (RNA)

B1: G000572: TTR sgRNA modified sequence, Human, SEQ ID No. 113; guide sequence of CR003385 (nucleic acid)
guide: mC*mC*mC*rCrUrArCrUrCrCrUrArUrUrCrCrArCrCrArGrUrUrUrUrArGrAmGmCmUmAmGmAmAmAmUmAmGmCrArArGrUrUrArArArArUrArArGrGrCrUrArGrUrCrCrGrUrUrArUrCrAmAmCmUmUmGmAmAmAmAmAmGmUmGmGmCmAmCmCmGmAmGmUmCmGmGmUmGmCmU*mU*mU*mU
B2: G000568: TTR sgRNA modified sequence, Human, SEQ ID No. 110; guide sequence of CR003391 (nucleic acid)
guide: mG*mG*mC*rUrGrUrCrGrUrCrArCrCrArArUrCrCrCrArGrUrUrUrUrArGrAmGmCmUmAmGmAmAmAmUmAmGmCrArArGrUrUrArArArArUrArArGrGrCrUrArGrUrCrCrGrUrUrArUrCrAmAmCmUmUmGmAmAmAmAmAmGmUmGmGmCmAmCmCmGmAmGmUmCmGmGmUmGmCmU*mU*mU*mU
B3: G000570: TTR sgRNA modified sequence, Human, SEQ ID No. 111; guide sequence of CR003347 (nucleic acid)
guide: mC*mA*mU*rUrGrArUrGrGrCrArGrGrArCrUrGrCrCrUrGrUrUrUrUrArGrAmGmCmUmAmGmAmAmAmUmAmGmCrArArGrUrUrArArArArUrArArGrGrCrUrArGrUrCrCrGrUrUrArUrCrAmAmCmUmUmGmAmAmAmAmAmGmUmGmGmCmAmCmCmGmAmGmUmCmGmGmUmGmCmU*mU*mU*mU
B4: G000567: TTR sgRNA modified sequence, Human, SEQ ID No. 109; guide sequence of CR003352 (nucleic acid)
guide: mG*mA*mA*rArGrGrCrUrGrCrUrGrArUrGrArCrArCrCrGrUrUrUrUrArGrAmGmCmUmAmGmAmAmAmUmAmGmCrArArGrUrUrArArArArUrArArGrGrCrUrArGrUrCrCrGrUrUrArUrCrAmAmCmUmUmGmAmAmAmAmAmGmUmGmGmCmAmCmCmGmAmGmUmCmGmGmUmGmCmU*mU*mU*mU
B5: G000501: TTR sgRNA modified sequence, Human, SEQ ID No. 108; guide sequence of CR005300 (nucleic acid)
guide: mU*mC*mA*rCrArGrArArArCrArCrUrCrArCrCrGrUrArGrUrUrUrUrArGrAmGmCmUmAmGmAmAmAmUmAmGmCrArArGrUrUrArArArArUrArArGrGrCrUrArGrUrCrCrGrUrUrArUrCrAmAmCmUmUmGmAmAmAmAmAmGmUmGmGmCmAmCmCmGmAmGmUmCmGmGmUmGmCmU*mU*mU*mU

Tests used:
[1] = test system: TTR; test: TTR editing in primary human hepatocytes transfected with Spy Cas9 mRNA and sgRNAs (Table 13); type: cell-based; settings: primary human hepatocytes co-transfected with Spy Cas9 mRNA (SEQ ID NO:2) and sgRNAs, 12.5 nM
Procedure: (§1) Primary liver hepatocytes. Primary human liver hepatocytes (PHH) and primary cynomolgus liver hepatocytes (PCH) (Gibco) were cultured per the manufacturer's protocol (Invitrogen, protocol 11.28.2012). In brief, the cells were thawed and resuspended in hepatocyte thawing medium with supplements (Gibco, Cat. CM7000) followed by centrifugation at 100 g for 10 minutes for human and 80 g for 4 minutes for cyno. The supernatant was discarded and the pelleted cells resuspended in hepatocyte plating medium plus supplement pack (Invitrogen, Cat. A1217601 and CM3000). Cells were counted and plated on Bio-coat collagen I coated 96-well plates (ThermoFisher, Cat. 877272) at a density of 33,000 cells/well for human or 60,000 cells/well for cyno (or 65,000 cells/well when assaying effects on TTR protein, described further below). Plated cells were allowed to settle and adhere for 6 or 24 hours in a tissue culture incubator at 37° C. and 5% CO2 atmosphere. After incubation cells were checked for monolayer formation and media was replaced with hepatocyte culture medium with serum-free supplement pack (Invitrogen, Cat. A1217601 and CM4000).
Lipofectamine RNAiMax (ThermoFisher, Cat. 13778150) based transfections were conducted as per the manufacturer's protocol. Cells were sequentially transfected with a lipoplex containing Spy Cas9 mRNA (100 ng), Lipofectamine RNAiMax (0.4 […]) and tracer RNA ([…]), Lipofectamine RNAiMax (0.4 μL/well) and OptiMem.
Transfected cells were harvested post-transfection at 24, 48, or 72 hours. The genomic DNA was extracted from each well of a 96-well plate using 50 μL/well BuccalAmp DNA Extraction solution (Epicentre, Cat. QE09050) per manufacturer's protocol. All DNA samples were subjected to PCR and subsequent NGS analyses, as described herein.
(§2) To quantitatively determine the efficiency of editing at the target location in the genome, sequencing was utilized to identify the presence of insertions and deletions introduced by gene editing.
(§3) Primers were designed around the target site within the gene of interest (e.g. TTR), and the genomic area of interest was amplified.
(§4) Additional PCR was performed per the manufacturer's protocols (Illumina) to add chemistry for sequencing. The amplicons were sequenced on an Illumina MiSeq instrument. The reads were aligned to a reference genome (e.g., the human reference genome (hg38), the cynomologus reference genome (mf5), the rat reference genome (rn6), or the mouse reference genome (mm10)) after eliminating those having low quality scores. The resulting files containing the reads were mapped to the reference genome (BAM files), where reads that overlapped the target region of interest were selected and the number of wild type reads versus the number of reads which contain an insertion, substitution, or deletion was calculated.
(§5) The editing percentage (e.g., the “editing efficiency” or “percent editing” or “indel frequency”) is defined as the total number of sequence reads with insertions/deletions (“indels”) or substitutions over the total number of sequence reads, including wild type.
Guides in modified sgRNA format targeting human and/or cyno TTR were delivered to primary human hepatocytes and primary cyno hepatocytes as described in Example 1. Percent editing was determined for crRNAs comprising each guide sequence across each cell type and the guide sequences were then rank ordered based on highest % edit. The screening data for the guide sequences in Table 2 in both cell lines are listed below (Table 12 through 15).

[2] = test system: TTR; test: TTR editing in primary human hepatocytes treated with LNP formulated Spy Cas9 mRNA (SEQ ID NO: 2) and sgRNAs (Table 16); type: cell-based; settings: LNP formulated Spy Cas9 mRNA (SEQ ID NO: 2) and sgRNA, 72 hours
Procedure: as §1
In general, the lipid nanoparticle components were dissolved in 100% ethanol with the lipid component of various molar ratios. The RNA cargos were dissolved in 25 mM citrate, 100 mM NaCl, pH 5.0, resulting in a concentration of RNA cargo of approximately 0.45 mg/mL. The LNPs were formulated with a lipid amine to RNA phosphate (N:P) molar ratio of about 4.5 or about 6, with the ratio of mRNA to gRNA at 1:1 by weight.
The LNPs were formed by microfluidic mixing of the lipid and RNA solutions using a Precision Nanosystems NanoAssemblr™ Benchtop Instrument, according to the manufacturer's protocol. A 2:1 ratio of aqueous to organic solvent was maintained during mixing using differential flow rates. After mixing, the LNPs were collected, diluted in water (approximately 1:1 v/v), held for 1 hour at room temperature, and further diluted with water (approximately 1:1 v/v) before final buffer exchange. The final buffer exchange into 50 mM Tris, 45 mM NaCl, 5% (w/v) sucrose, pH 7.5 (TSS) was completed with PD-10 desalting columns (GE). If required, formulations were concentrated by centrifugation with Amicon 100 kDa centrifugal filters (Millipore). The resulting mixture was then filtered using a 0.2 μm sterile filter. The final LNP was stored at −80° C. until further use.
as §2, §3, §4, §5
Lipid nanoparticle formulations of modified sgRNAs targeting human TTR and the cyno matched sgRNA sequences were tested on primary human hepatocytes and primary cyno hepatocytes in a dose response curve. Primary human and cyno hepatocytes were plated as described in Example 1. […]

| Molecule | Avg % Deletion [1] | Avg % Edit [1] | Avg % Insert [1] | 12.5 ng mRNA, 3.9 nM sgRNA Avg % Edit [2] |
| --- | --- | --- | --- | --- |
| B1 | 13.85% | 55.42% | 41.62% | 55.45% |
| B2 | 0.80% | 43.75% | 43.00% | 54.60% |
| B3 | 0.35% | 68.42% | 68.08% | 88.30% |
| B4 | 10.02% | 27.28% | 17.35% | 48.95% |
| B5 | 6.62% | 40.32% | 33.82% | 32.30% |
